According to patent US20220372490A1:

Assays:
[1] = target: p53^WT, p53^R175H, p53^R248Q, p53^R273H and p53^R280K (His-tagged recombinant proteins, as a group); test: ELISA, His-tagged recombinant proteins
[2] = target: the mutants (p53 mutants in whole cell lysates of SKBR3, MDA-MB-231, MDA-MB-468 and HCC70, as a group); test: cell-based or functional assay
[3] = target: p53WT and the mutants (p53 in whole cell lysates of CAL-51, SKBR3, MDA-MB-231, MDA-MB-468 and HCC70, as a group); test: IP of all p53 with excess antibody, WB of PEPD in the precipitate against input

B1: His-tagged recombinant human PEPD (prolidase, peptidase D) (enzyme, UniProt P12955 1-493, looked up)
chain: MAAATGPSFWLGNETLKVPLALFALNRQRLCERLRKNPAVQAGSIVVLQGGEETQRYCTDTGVLFRQESFFHWAFGVTEPGCYGVIDVDTGKSTLFVPRLPASHATWMGKIHSKEHFKEKYAVDDVQYVDEIASVLTSQKPSVLLTLRGVNTDSGSVCREASFDGISKFEVNNTILHPEIVECRVFKTDMELEVLRYTNKISSEAHREVMKAVKVGMKEYELESLFEHYCYSRGGMRHSSYTCICGSGENSAVLHYGHAGAPNDRTIQNGDMCLFDMGGEYYCFASDITCSFPANGKFTADQKAVYEAVLRSSRAVMGAMKPGVWWPDMHRLADRIHLEELAHMGILSGSVDAMVQAHLGAVFMPHGLGHFLGIDVHDVGGYPEGVERIDEPGLRSLRTARHLQPGMVLTVEPGIYFIDHLLDEALADPARASFLNREVLQRFRGFGGVRIEEDVVVTDSGIELLTCVPRTVEEIEACMAGCDKAFTPFSGPK
- Kd [1]: 145 to 185 nM

B2: PEPD in human breast cancer cells (endogenous, in cell lysates, cytosol or nuclear extracts), P12955 2-493 (enzyme, UniProt P12955 2-493, looked up)
chain: AAATGPSFWLGNETLKVPLALFALNRQRLCERLRKNPAVQAGSIVVLQGGEETQRYCTDTGVLFRQESFFHWAFGVTEPGCYGVIDVDTGKSTLFVPRLPASHATWMGKIHSKEHFKEKYAVDDVQYVDEIASVLTSQKPSVLLTLRGVNTDSGSVCREASFDGISKFEVNNTILHPEIVECRVFKTDMELEVLRYTNKISSEAHREVMKAVKVGMKEYELESLFEHYCYSRGGMRHSSYTCICGSGENSAVLHYGHAGAPNDRTIQNGDMCLFDMGGEYYCFASDITCSFPANGKFTADQKAVYEAVLRSSRAVMGAMKPGVWWPDMHRLADRIHLEELAHMGILSGSVDAMVQAHLGAVFMPHGLGHFLGIDVHDVGGYPEGVERIDEPGLRSLRTARHLQPGMVLTVEPGIYFIDHLLDEALADPARASFLNREVLQRFRGFGGVRIEEDVVVTDSGIELLTCVPRTVEEIEACMAGCDKAFTPFSGPK
- cells killed by PEPD siRNA after 72 h (trypan blue assay), cells without PEPD^G278D [2]: 65 to 79%

B3: PEPD in human breast cancer cells (endogenous, in cell lysates, cytosol or nuclear extracts) (enzyme, UniProt P12955 2-493, looked up)
chain: AAATGPSFWLGNETLKVPLALFALNRQRLCERLRKNPAVQAGSIVVLQGGEETQRYCTDTGVLFRQESFFHWAFGVTEPGCYGVIDVDTGKSTLFVPRLPASHATWMGKIHSKEHFKEKYAVDDVQYVDEIASVLTSQKPSVLLTLRGVNTDSGSVCREASFDGISKFEVNNTILHPEIVECRVFKTDMELEVLRYTNKISSEAHREVMKAVKVGMKEYELESLFEHYCYSRGGMRHSSYTCICGSGENSAVLHYGHAGAPNDRTIQNGDMCLFDMGGEYYCFASDITCSFPANGKFTADQKAVYEAVLRSSRAVMGAMKPGVWWPDMHRLADRIHLEELAHMGILSGSVDAMVQAHLGAVFMPHGLGHFLGIDVHDVGGYPEGVERIDEPGLRSLRTARHLQPGMVLTVEPGIYFIDHLLDEALADPARASFLNREVLQRFRGFGGVRIEEDVVVTDSGIELLTCVPRTVEEIEACMAGCDKAFTPFSGPK
- percent of PEPD that binds to p53 [3]: 6 to 9%
